T1: NHERF3_1, Q5T2W1
T1 sequence (Q5T2W1 4-100, limits assumed, looked up): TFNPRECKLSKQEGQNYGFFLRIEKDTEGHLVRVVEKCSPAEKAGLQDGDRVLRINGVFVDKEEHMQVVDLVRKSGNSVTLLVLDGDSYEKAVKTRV

T2: MPP6, Q9NZW5
T2 sequence (Q9NZW5 125-219, limits assumed, looked up): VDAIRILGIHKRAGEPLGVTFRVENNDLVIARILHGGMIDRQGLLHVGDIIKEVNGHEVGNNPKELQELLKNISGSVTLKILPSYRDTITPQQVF

T3: SYNJ2BP, P57105
T3 sequence (P57105 8-110, limits assumed, looked up): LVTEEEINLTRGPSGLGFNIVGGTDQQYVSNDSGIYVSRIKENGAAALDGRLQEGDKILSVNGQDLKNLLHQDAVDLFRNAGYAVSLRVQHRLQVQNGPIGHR

T4: LIN7B, Q9HAP6
T4 sequence (Q9HAP6 88-185, limits assumed, looked up): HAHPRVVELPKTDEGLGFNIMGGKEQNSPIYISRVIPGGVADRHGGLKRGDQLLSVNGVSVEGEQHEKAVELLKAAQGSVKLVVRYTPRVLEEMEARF

T5: ARHGAP21, Q5T5U3
T5 sequence (Q5T5U3 45-169, limits assumed, looked up): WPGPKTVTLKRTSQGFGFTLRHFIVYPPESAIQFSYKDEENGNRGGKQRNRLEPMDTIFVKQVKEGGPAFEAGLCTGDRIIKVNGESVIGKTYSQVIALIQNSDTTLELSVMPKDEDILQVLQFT

T6: DFNB31_2, Q9P202
T6 sequence (Q9P202 274-371, limits assumed, looked up): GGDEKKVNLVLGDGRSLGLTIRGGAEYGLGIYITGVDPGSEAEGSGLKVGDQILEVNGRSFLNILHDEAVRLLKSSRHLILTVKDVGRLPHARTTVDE

T7: PDZRN3_1, Q9UPQ7
T7 sequence (Q9UPQ7 244-349, limits assumed, looked up): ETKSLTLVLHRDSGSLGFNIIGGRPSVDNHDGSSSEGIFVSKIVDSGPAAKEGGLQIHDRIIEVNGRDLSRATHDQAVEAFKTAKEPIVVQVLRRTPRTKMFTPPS

T8: SNTG1, Q9NSN8
T8 sequence (Q9NSN8 52-150, limits assumed, looked up): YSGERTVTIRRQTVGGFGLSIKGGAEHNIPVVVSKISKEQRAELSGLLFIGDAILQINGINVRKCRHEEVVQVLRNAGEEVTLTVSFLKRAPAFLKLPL

T9: MPP7, Q5T2T1
T9 sequence (Q5T2T1 134-230, limits assumed, looked up): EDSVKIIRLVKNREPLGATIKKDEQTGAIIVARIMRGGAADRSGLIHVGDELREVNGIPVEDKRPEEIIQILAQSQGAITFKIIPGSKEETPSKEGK

T10: HTRA4, P83105
T10 sequence (P83105 378-476, limits assumed, looked up): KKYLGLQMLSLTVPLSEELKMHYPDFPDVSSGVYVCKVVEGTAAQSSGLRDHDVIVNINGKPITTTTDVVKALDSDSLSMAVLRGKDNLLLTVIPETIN

T11: DLG3_2, Q92796
T11 sequence (Q92796 221-321, limits assumed, looked up): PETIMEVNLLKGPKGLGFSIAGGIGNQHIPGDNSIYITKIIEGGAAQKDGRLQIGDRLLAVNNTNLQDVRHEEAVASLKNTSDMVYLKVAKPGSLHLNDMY

T12: GRIP1_3, Q9Y3R0
T12 sequence (Q9Y3R0 247-346, limits assumed, looked up): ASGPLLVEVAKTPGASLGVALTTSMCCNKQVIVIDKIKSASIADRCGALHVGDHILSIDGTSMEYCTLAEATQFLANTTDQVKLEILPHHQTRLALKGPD

B1: AKAP10, O43572 (peptide)
chain: DQPLEKSTKL
B2: PPFIA1, Q13136 (peptide)
chain: DSATVRTYSC

Target: LDB3, O75112
Sequence (O75112 1-94): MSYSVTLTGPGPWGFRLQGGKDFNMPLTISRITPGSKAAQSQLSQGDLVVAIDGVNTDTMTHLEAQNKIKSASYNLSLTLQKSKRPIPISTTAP
Assay: holdup assay
Parameters: key: below the threshold = too weak to quantify, mostly under pKd 3.1 to 4
Details: plain residues with an end cap or a label only (N-terminal biotin on a linker: ado-ado)

| pKd | Binder |
| --- | --- |
| below the threshold | B1 |
| below the threshold | B2 |

Target: PICK1, Q9NRD5
Sequence (Q9NRD5 17-115): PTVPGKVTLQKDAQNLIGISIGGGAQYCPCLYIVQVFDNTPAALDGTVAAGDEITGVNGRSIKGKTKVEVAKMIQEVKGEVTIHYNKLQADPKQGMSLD
Assay: holdup assay
Parameters: key: below the threshold = too weak to quantify, mostly under pKd 3.1 to 4
Details: plain residues with an end cap or a label only (N-terminal biotin on a linker: ado-ado)

| pKd | Binder |
| --- | --- |
| below the threshold | B1 |
| 4.15 | B2 |

Target: T1, NHERF3_1, Q5T2W1
Assay: holdup assay
Parameters: key: below the threshold = too weak to quantify, mostly under pKd 3.1 to 4
Details: plain residues with an end cap or a label only (N-terminal biotin on a linker: ado-ado)

| pKd | Binder |
| --- | --- |
| 6.02 | B1 |
| 3.77 | B2 |

Target: GRIP2_5, Q9C0E4
Sequence (Q9C0E4 544-642): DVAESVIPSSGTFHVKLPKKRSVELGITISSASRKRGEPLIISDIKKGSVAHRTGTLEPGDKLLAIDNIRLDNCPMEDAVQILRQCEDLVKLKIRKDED
Assay: holdup assay
Parameters: key: below the threshold = too weak to quantify, mostly under pKd 3.1 to 4
Details: plain residues with an end cap or a label only (N-terminal biotin on a linker: ado-ado)

| pKd | Binder |
| --- | --- |
| below the threshold | B1 |
| below the threshold | B2 |

Target: T2, MPP6, Q9NZW5
Assay: holdup assay
Parameters: key: below the threshold = too weak to quantify, mostly under pKd 3.1 to 4
Details: plain residues with an end cap or a label only (N-terminal biotin on a linker: ado-ado)

| pKd | Binder |
| --- | --- |
| below the threshold | B1 |
| below the threshold | B2 |

Target: T3, SYNJ2BP, P57105
Assay: holdup assay
Parameters: key: below the threshold = too weak to quantify, mostly under pKd 3.1 to 4
Details: plain residues with an end cap or a label only (N-terminal biotin on a linker: ado-ado)

| pKd | Binder |
| --- | --- |
| below the threshold | B1 |
| below the threshold | B2 |

Target: GRIP2_7, Q9C0E4
Sequence (Q9C0E4 934-1023): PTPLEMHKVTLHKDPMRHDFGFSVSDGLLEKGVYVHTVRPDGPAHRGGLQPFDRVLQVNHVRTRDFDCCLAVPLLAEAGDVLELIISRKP
Assay: holdup assay
Parameters: key: below the threshold = too weak to quantify, mostly under pKd 3.1 to 4
Details: plain residues with an end cap or a label only (N-terminal biotin on a linker: ado-ado)

| pKd | Binder |
| --- | --- |
| below the threshold | B1 |
| 4.15 | B2 |

Target: Inadl_2, Q8NI35
Sequence (Q8NI35 238-335): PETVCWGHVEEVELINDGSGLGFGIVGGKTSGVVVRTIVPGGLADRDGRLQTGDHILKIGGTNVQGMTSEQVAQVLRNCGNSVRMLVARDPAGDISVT
Assay: holdup assay
Parameters: key: below the threshold = too weak to quantify, mostly under pKd 3.1 to 4
Details: plain residues with an end cap or a label only (N-terminal biotin on a linker: ado-ado)

| pKd | Binder |
| --- | --- |
| below the threshold | B1 |
| below the threshold | B2 |

Target: MAGI1_2, Q96QZ7
Sequence (Q96QZ7 456-580): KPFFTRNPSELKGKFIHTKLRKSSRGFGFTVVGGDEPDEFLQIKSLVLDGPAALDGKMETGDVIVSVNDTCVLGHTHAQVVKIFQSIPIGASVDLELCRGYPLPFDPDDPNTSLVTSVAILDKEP
Assay: holdup assay
Parameters: key: below the threshold = too weak to quantify, mostly under pKd 3.1 to 4
Details: plain residues with an end cap or a label only (N-terminal biotin on a linker: ado-ado)

| pKd | Binder |
| --- | --- |
| below the threshold | B1 |
| below the threshold | B2 |

Target: T4, LIN7B, Q9HAP6
Assay: holdup assay
Parameters: key: below the threshold = too weak to quantify, mostly under pKd 3.1 to 4
Details: plain residues with an end cap or a label only (N-terminal biotin on a linker: ado-ado)

| pKd | Binder |
| --- | --- |
| below the threshold | B1 |
| 3.7 | B2 |

Target: T5, ARHGAP21, Q5T5U3
Assay: holdup assay
Parameters: key: below the threshold = too weak to quantify, mostly under pKd 3.1 to 4
Details: plain residues with an end cap or a label only (N-terminal biotin on a linker: ado-ado)

| pKd | Binder |
| --- | --- |
| below the threshold | B1 |
| below the threshold | B2 |

Target: T6, DFNB31_2, Q9P202
Assay: holdup assay
Parameters: key: below the threshold = too weak to quantify, mostly under pKd 3.1 to 4
Details: plain residues with an end cap or a label only (N-terminal biotin on a linker: ado-ado)

| pKd | Binder |
| --- | --- |
| below the threshold | B1 |
| below the threshold | B2 |

Target: GIPC2, Q8TF65
Sequence (Q8TF65 112-203): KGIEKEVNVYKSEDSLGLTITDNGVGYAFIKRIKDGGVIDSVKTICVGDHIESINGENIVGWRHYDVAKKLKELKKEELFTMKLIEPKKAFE
Assay: holdup assay
Parameters: key: below the threshold = too weak to quantify, mostly under pKd 3.1 to 4
Details: plain residues with an end cap or a label only (N-terminal biotin on a linker: ado-ado)

| pKd | Binder |
| --- | --- |
| below the threshold | B1 |
| below the threshold | B2 |

Target: FRMPD2_3, Q68DX3
Sequence (Q68DX3 1073-1166): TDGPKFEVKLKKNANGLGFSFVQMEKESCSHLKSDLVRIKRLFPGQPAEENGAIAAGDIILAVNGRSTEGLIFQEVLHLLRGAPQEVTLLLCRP
Assay: holdup assay
Parameters: key: below the threshold = too weak to quantify, mostly under pKd 3.1 to 4
Details: plain residues with an end cap or a label only (N-terminal biotin on a linker: ado-ado)

| pKd | Binder |
| --- | --- |
| below the threshold | B1 |
| below the threshold | B2 |

Target: Inadl_10, Q8NI35
Sequence (Q8NI35 1673-1763): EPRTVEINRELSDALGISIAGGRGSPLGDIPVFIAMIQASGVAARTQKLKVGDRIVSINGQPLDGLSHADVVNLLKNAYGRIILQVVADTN
Assay: holdup assay
Parameters: key: below the threshold = too weak to quantify, mostly under pKd 3.1 to 4
Details: plain residues with an end cap or a label only (N-terminal biotin on a linker: ado-ado)

| pKd | Binder |
| --- | --- |
| below the threshold | B1 |
| below the threshold | B2 |

Target: Inadl_6, Q8NI35
Sequence (Q8NI35 1058-1167): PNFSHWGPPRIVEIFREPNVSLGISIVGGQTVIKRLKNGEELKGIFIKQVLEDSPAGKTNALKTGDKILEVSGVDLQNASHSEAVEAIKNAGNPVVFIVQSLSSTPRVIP
Assay: holdup assay
Parameters: key: below the threshold = too weak to quantify, mostly under pKd 3.1 to 4
Details: plain residues with an end cap or a label only (N-terminal biotin on a linker: ado-ado)

| pKd | Binder |
| --- | --- |
| below the threshold | B1 |
| below the threshold | B2 |

Target: T7, PDZRN3_1, Q9UPQ7
Assay: holdup assay
Parameters: key: below the threshold = too weak to quantify, mostly under pKd 3.1 to 4
Details: plain residues with an end cap or a label only (N-terminal biotin on a linker: ado-ado)

| pKd | Binder |
| --- | --- |
| 3.79 | B1 |
| below the threshold | B2 |

Target: T8, SNTG1, Q9NSN8
Assay: holdup assay
Parameters: key: below the threshold = too weak to quantify, mostly under pKd 3.1 to 4
Details: plain residues with an end cap or a label only (N-terminal biotin on a linker: ado-ado)

| pKd | Binder |
| --- | --- |
| below the threshold | B1 |
| below the threshold | B2 |

Target: T9, MPP7, Q5T2T1
Assay: holdup assay
Parameters: key: below the threshold = too weak to quantify, mostly under pKd 3.1 to 4
Details: plain residues with an end cap or a label only (N-terminal biotin on a linker: ado-ado)

| pKd | Binder |
| --- | --- |
| below the threshold | B1 |
| 3.92 | B2 |

Target: MAGI2_5, Q86UL8
Sequence (Q86UL8 915-1017): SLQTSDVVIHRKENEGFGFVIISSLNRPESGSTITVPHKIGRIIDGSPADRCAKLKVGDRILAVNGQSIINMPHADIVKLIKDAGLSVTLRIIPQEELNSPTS
Assay: holdup assay
Parameters: key: below the threshold = too weak to quantify, mostly under pKd 3.1 to 4
Details: plain residues with an end cap or a label only (N-terminal biotin on a linker: ado-ado)

| pKd | Binder |
| --- | --- |
| 4.02 | B1 |
| below the threshold | B2 |

Target: MAGI3_2, Q5TCQ9
Sequence (Q5TCQ9 398-503): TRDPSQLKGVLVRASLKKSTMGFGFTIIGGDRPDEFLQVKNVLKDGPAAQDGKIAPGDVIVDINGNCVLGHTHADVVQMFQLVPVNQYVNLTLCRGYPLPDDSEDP
Assay: holdup assay
Parameters: key: below the threshold = too weak to quantify, mostly under pKd 3.1 to 4
Details: plain residues with an end cap or a label only (N-terminal biotin on a linker: ado-ado)

| pKd | Binder |
| --- | --- |
| below the threshold | B1 |
| below the threshold | B2 |

Target: T10, HTRA4, P83105
Assay: holdup assay
Parameters: key: below the threshold = too weak to quantify, mostly under pKd 3.1 to 4
Details: plain residues with an end cap or a label only (N-terminal biotin on a linker: ado-ado)

| pKd | Binder |
| --- | --- |
| below the threshold | B1 |
| below the threshold | B2 |

Target: T11, DLG3_2, Q92796
Assay: holdup assay
Parameters: key: below the threshold = too weak to quantify, mostly under pKd 3.1 to 4
Details: plain residues with an end cap or a label only (N-terminal biotin on a linker: ado-ado)

| pKd | Binder |
| --- | --- |
| 4.14 | B1 |
| 4.08 | B2 |

Target: T12, GRIP1_3, Q9Y3R0
Assay: holdup assay
Parameters: key: below the threshold = too weak to quantify, mostly under pKd 3.1 to 4
Details: plain residues with an end cap or a label only (N-terminal biotin on a linker: ado-ado)

| pKd | Binder |
| --- | --- |
| below the threshold | B1 |
| below the threshold | B2 |

— publication PMC9482650, “Quantitative fragmentomics allow affinity mapping of interactomes” (Nature Communications, 2022)
